Experimental findings from US20210388097A1 (SORRENTO THERAPEUTICS, published 2021) are described below.

The target in assay [1] is T1, his-tagged mouse BCMA protein (ACROBiosystems, catalog # BCA-M52H3) (mouse, UniProt O88472 1-49).
T1 construct: Bought protein; not shown: his tag
T1 chain (looked up): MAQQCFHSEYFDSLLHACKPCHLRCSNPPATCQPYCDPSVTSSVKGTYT
Kind of assay: SPR (Biacore T200), antibody captured on anti-human Fc chip, his-tagged mouse BCMA as analyte. Here is the method: (§1) Binding kinetics of anti-BCMA antibodies with his-tagged human BCMA protein (ACROBiosystems, catalog # BCA-H522y-100 ug, UniProt Q02223-1, SEQ ID NO:92) was measured using surface plasmon resonance (SPR). Kinetic interactions between the antibodies and his-tagged BCMA proteins were measured at 25° C. using Biacore T200 surface plasmon resonance (GE Healthcare). Anti-human fragment crystallizable region (Fc region) antibody was immobilized on a CM5 sensor chip to approximately 8000 resonance units (RU) using standard N-hydroxysuccinimide/N-Ethyl-N′-(3-dimethylaminopropyl) carbodiimide hydrochloride (NHS/EDC) coupling methodology. The anti-BCMA antibody (2 μg/mL) was captured for 60 seconds at a flow rate of 10 μL/minute. The his-tagged BCMA protein was run at […] different dilutions of 3.12, 6.25, 12.5, 25, 50, 100 and 200 nM, in a running buffer of 0.01 M HEPES pH 7.4, 0.15 M NaCl, 3 mM EDTA, 0.05% v/v Surfactant P20 (HBS-EP+). The 25 nM BCMA protein run was measured two times. All measurements were conducted in HBS-EP+ buffer with a flow rate of 30 μL/minute. A 1:1 (Langmuir) binding model was used to fit the data. […]
(§2) Cross reactivity of two of the anti-BCMA antibodies, BCA7-2C5 and BCA7-2E1, with his-tagged human, cynomolgus or mouse BCMA protein were analyzed by SPR in the manner as described above. […]
Background: SPR reads the build-up and loss of mass on a sensor chip optically.

Assay [2] deals with T2, his-tagged cynomolgus BCMA protein (ACROBiosystems, catalog # BCA-052H7) (cynomolgus, UniProt A0A2K5UD97 1-53).
T2 construct: Bought protein; also called cyno BCMA; not shown: his tag
T2 sequence (A0A2K5UD97 entry or part of it): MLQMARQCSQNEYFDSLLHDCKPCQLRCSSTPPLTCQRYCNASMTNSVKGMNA
Briefly: SPR (Biacore T200), antibody captured on anti-human Fc chip, his-tagged cynomolgus BCMA as analyte. Here is the method:
as §1, §2

Assay [3] concerns the target T3, human BAFFR/TNFRSF13C (CD268) Fc tag, from Sino Biological (human, UniProt Q96RJ3 1-71, limits assumed).
T3 construct: Bought protein; not shown: Fc tag
T3 sequence (looked up): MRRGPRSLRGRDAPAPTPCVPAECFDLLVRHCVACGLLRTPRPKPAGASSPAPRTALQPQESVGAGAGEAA
Kind of assay: bio-layer interferometry, antibody coupled to AR2G sensor, BAFFR in solution. Here is the method:
(§3) Bio-layer interferometry was used to measure cross-binding between (1) two different anti-BCMA antibodies (BCA7-2C5 or BB C11D5) or a control isotype, and (2) various human antigens including TACI and BAFFR.
(§4) Immobilization of antibody was achieved through standard EDC-catalyzed amide bond formation to create a covalent bond between a reactive amine on the protein and the carboxy-terminated biosensor surface. Briefly, AR2G sensors (OctetRED96e from ForteBio) were activated by EDC-NHS for 6 minutes, then 5 ug/ml antibodies were loaded (BCA7-2C5 antibody, Bluebird C11D5 chimeric antibody, or a human IgG isotype antibody) in 10 mM acetate buffer pH 5.0 for 6 minutes, followed by quenching for 6 minutes with 1M ethanolamine pH 8.5. The 3 minutes baseline step removed any unbound antibody from the biosensor, followed by 1.5 minutes each for association of three analyte proteins TACI (human TACI/TNFRSF13B (CD267) His-tag, from Sino Biological, 1 ug/mL in PBS), BAFFR (human BAFFR/TNFRSF13C (CD268) Fc tag) from Sino Biological, 2 ug/mL in PBS), and human BCMA protein (in-house made with mouse Fc, 2 ug/mL in PBS).

Assay [4] has as its target T4, human TACI/TNFRSF13B (CD267) His-tag, from Sino Biological (human, UniProt O14836 1-166, limits assumed).
T4 construct: Bought protein; not shown: His-tag
T4 sequence (looked up): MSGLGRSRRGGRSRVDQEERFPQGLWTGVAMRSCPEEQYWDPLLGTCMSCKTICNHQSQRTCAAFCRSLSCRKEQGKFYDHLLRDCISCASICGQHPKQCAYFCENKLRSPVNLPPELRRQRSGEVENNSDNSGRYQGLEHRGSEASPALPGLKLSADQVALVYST
Briefly: bio-layer interferometry, antibody coupled to AR2G sensor, TACI in solution. Here is the method: as §3, §4
(In BLI a coated tip is dipped into the sample, and binding shifts an interference pattern.)

B1: BCA7-2C5 antibody (antibody, V domains shown)
VH: EVQLVESGGGLVKPGGSLRLSCAASGFTSSTAWMSWVRQAPGKGLEWVGRIKSKSDGGTTDYAAPVKGRFTISRDDSKNTLFLQMNSLKTEDTAVYYCAKGGGTYGYWGQGTTVTVSS
VL: QSALTQPASVSGSPGQSVTISCTGTSSAHGGHYYVSWYQQHPGKAPKLMIYDVSNRPSGVSNRFSGSKSGNTASLTISGLQAEDEADYYCGSYTSSGSYVFGTGTKLTVL
As a reminder, the Kd is the constant that tells how readily two partners part at equilibrium. Higher therefore signals lower affinity. Take B1: the Kd in assay [1] stood at 880 nM; in assay [2] it was 57 nM. For the same molecule, the values for the binding result in assay [3] and in assay [4] were “no binding (tested: 2 ug/mL)” and “no binding (tested: 1 ug/mL)”, respectively.
